Data as given in US20190127444A1 (published 2019).

B1: mAb 5133 PRASA A6 HC-L4-E (Table 1 Construct 15) (bispecific antibody)
heavy: EVQLVETGGGLVKPGGSLRLSCSASRFSFRDYYMTWIRQAPGKGPEWVSHISGSGSTIYYADSVRGRFTISRDNAKSSLYLQMDSLQADDTAVYYCARGGRATSYYWVHWGPGTLVTVSSASTKGPSVFPLAPSSKSTSGGTAALGCLVKDYFPEPVTVSWNSGALTSGVHTFPAVLQSSGLYSLSSVVTVPSSSLGTQTYICNVNHKPSNTKVDKKVEPKSCDKTHTCPPCPAPPVAGPDVFLFPPKPKDTLMISRTPEVTCVVVDVSHEDPEVKFNWYVDGVEVHNAKTKPREEQYNSTYRVVSVLTVLHQDWLNGKEYKCKVSNAALPAPIAKTISKAKGQPREPQVYTLPPSRDELTKNQVSLTCLVKGFYPSDIAVEWESNGQPENNYKTTPPVLDSDGSFFLYSKLTVDKSRWQQGNVFSCSVMHEALHNRFTQKSLSLSPGKGGGGSGGGGSGGGGSGGGGSMLPAPKNLVVSRVTEDSARLSWTAPDAAFDSFHIEYAEPWVWGEAIVLTVPGSERSYDLTGLKPGTEYVVFIGGVKGGHNSTPLSAIFTT
light: EIVLTQSPATLSLSPGERATLSCRASQSVSGYLGWYQQKPGQAPRLLIYGASSRATGIPDRFSGSGSGTDFTLTISRLEPEDFAVYYCQQYGSSPLTFGGGTKLEIKRTVAAPSVFIFPPSDEQLKSGTASVVCLLNNFYPREAKVQWKVDNALQSGNSQESVTEQDSKDSTYSLSSTLTLSKADYEKHKVYACEVTHQGLSSPVTKSFNRGEC
B2: mAb 5133 PRASA A6 HC-L4-E-L4-AB (Table 1 Construct 11) (bispecific antibody)
heavy: EVQLVETGGGLVKPGGSLRLSCSASRFSFRDYYMTWIRQAPGKGPEWVSHISGSGSTIYYADSVRGRFTISRDNAKSSLYLQMDSLQADDTAVYYCARGGRATSYYWVHWGPGTLVTVSSASTKGPSVFPLAPSSKSTSGGTAALGCLVKDYFPEPVTVSWNSGALTSGVHTFPAVLQSSGLYSLSSVVTVPSSSLGTQTYICNVNHKPSNTKVDKKVEPKSCDKTHTCPPCPAPPVAGPDVFLFPPKPKDTLMISRTPEVTCVVVDVSHEDPEVKFNWYVDGVEVHNAKTKPREEQYNSTYRVVSVLTVLHQDWLNGKEYKCKVSNAALPAPIAKTISKAKGQPREPQVYTLPPSRDELTKNQVSLTCLVKGFYPSDIAVEWESNGQPENNYKTTPPVLDSDGSFFLYSKLTVDKSRWQQGNVFSCSVMHEALHNRFTQKSLSLSPGKGGGGSGGGGSGGGGSGGGGSMLPAPKNLVVSRVTEDSARLSWTAPDAAFDSFHIEYAEPWVWGEAIVLTVPGSERSYDLTGLKPGTEYVVFIGGVKGGHNSTPLSAIFTTGGGGSGGGGSGGGGSGGGGSMLPAPKNLVVSRVTEDSARLSWTAPDAAFDSFWITYEEKFYRGEAIVLTVPGSERSYDLTGLKPGTEYKVWIVGVKGGQGSWPLSAIFTT
light: EIVLTQSPATLSLSPGERATLSCRASQSVSGYLGWYQQKPGQAPRLLIYGASSRATGIPDRFSGSGSGTDFTLTISRLEPEDFAVYYCQQYGSSPLTFGGGTKLEIKRTVAAPSVFIFPPSDEQLKSGTASVVCLLNNFYPREAKVQWKVDNALQSGNSQESVTEQDSKDSTYSLSSTLTLSKADYEKHKVYACEVTHQGLSSPVTKSFNRGEC

Tests used:
[1] = target: SdgB glycosylated SdrC4 protein (UniProt O86487 51-910); experiment: SPR
[2] = target: LukE, recombinant polyhistidine-tagged variant; experiment: SPR

| Binder | Kd [1] [nM] | Kd [2] [nM] |
| --- | --- | --- |
| B1 | 0.63 | 0.88 |
| B2 | 0.91 | 1.01 |
